Data set [1] is described as follows: Specific activity towards di-methoxy-phenol (DMP). The class given is biochemical. As to conditions: 25 mM MES buffer, pH 5.5. On the procedure:
(§1) Specific activities of the purified T. arenaria and C. thermophilum laccases were determined towards different laccase substrates.

A short description of data set [2]: Specific activity towards guaiacol. The class given is biochemical. As to conditions: 25 mM MES buffer, pH 5.5. On the procedure:
as §1

Data set [3] is described as follows: Specific activity towards syringaldazine. It counts as biochemical. As to conditions: 25 mM MES buffer, pH 5.5. On the procedure: as §1
The nature of data set [4]: Specific activity towards ABTS. The class given is biochemical. As to conditions: 25 mM succinate buffer pH 4.5, 25° C. As for the experimental part:
The activity assay was carried out in accordance with the method developed by Niku-Paavola et al. (1988). The sample was diluted with 0.025 M succinate buffer, pH 4.5. […] The activity is expressed as nano katals.
as §1

A short description of data set [5]: Isoelectric focusing (pI). It counts as physicochemical. To be noted: pH range 3-9. On the procedure: Molecular weight of the T. arenaria and C. thermophilum laccases were determined on SDS-PAGE according to Laemmli (1970) The gels used in the SDS-PAGE analysis were ready-made 12% Tris HCl gels (BioRad). Protein bands were visualized by staining with Coomassie Brilliant Blue (R 350; Pharmacia) and compared with molecular weight markers (Prestained Protein Marker Broad Range #7708S; New England BioLabs, Beverly, Mass.). The molecular weight of the both laccases was approximately 80 kDa. The isoelectric point of the laccases was determined with isoelectric focusing within the pH range of 3-9 (Pharmalyte IEF, Pharmacia) on a LKB 2117 Multiphor II Electrophoresis System (LKB Pharmacia, Bromma, Sweden) according to the manufacturer's instructions.
The purified recombinant Thielavia and Chaetomium laccases were characterized in terms of pH optimum, thermal stability, and pI as described in Example 2. The molecular weight was determined by MALDI-TOF mass spectrometry on a Ultraflex™ time-of-flight instrument (BrukerDaltonics, Germany) as previously described (Palonen et al., 2003). The redox-potentials of the T1 coppers of for CtLcc, and TaLcc2 laccases were determined by photometric copper titration in 0.1 M KH2PO4 (pH 6.0) as described by Xu et al. (1996) using the redox titrant couple K3Fe(CN)6/K4Fe(CN)6. The redox potential of TaLcc1 was determined with a combined Pt—AgCl/KCl microelectrode at pH 5.0 according to Sigoillot et al (2004). The characterization results are collected to Table 14.

B1: MaL: well-known fungal laccase from Melanocarpus albomyces (protein, UniProt Q70KY3 51-609, looked up)
Laccase-1: EPTCNTPSNRACWSDGFDINTDYEVSTPDTGVTQSYVFNLTEVDNWMGPDGVVKEKVMLINGNIMGPNIVANWGDTVEVTVINNLVTNGTSIHWHGIHQKDTNLHDGANGVTECPIPPKGGQRTYRWRARQYGTSWYHSHFSAQYGNGVVGTIQINGPASLPYDIDLGVFPITDYYYRAADDLVHFTQNNAPPFSDNVLINGTAVNPNTGEGQYANVTLTPGKRHRLRILNTSTENHFQVSLVNHTMTVIAADMVPVNAMTVDSLFLAVGQRYDVVIDASRAPDNYWFNVTFGGQAACGGSLNPHPAAIFHYAGAPGGLPTDEGTPPVDHQCLDTLDVRPVVPRSVPVNSFVKRPDNTLPVALDLTGTPLFVWKVNGSDINVDWGKPIIDYILTGNTSYPVSDNIVQVDAVDQWTYWLIENDPEGPFSLPHPMHLHGHDFLVLGRSPDVPAASQQRFVFDPAVDLARLNGDNPPRRDTTMLPAGGWLLLAFRTDNPGAWLFHCHIAWHVSGGLSVDFLERPADLRQRISQEDEDDFNRVCDEWRAYWPTNPYPKIDSGL
As to B1, the “Specific activity on DMP” value in data set [1] is recorded as 290 nkat/mg. Further, the “Specific activity on guaiacol” value in data set [2] is 90 nkat/mg. Besides, in data set [3], the “Specific activity on syringaldazin” value stood at 380 nkat/mg. Moreover, the “Specific activity on ABTS” value in data set [4] came out at 840 nkat/mg.

B2: TaLcc3: Thielavia arenaria ALKO 4197 laccase, SEQ ID NO: 43, produced in Trichoderma reesei (protein)
chain: MVCLQYQLTAACFAVLAVVTTPASCSPVQPSPVHDLLPRQTIIPGGKPCGQNNATNRGCWKNNWNITTDYEVDTPPAFNTRVYDLHITNVTNWLGPDGVRKPAMLINGSFPGPTISADWGDYIIVNVHNDMQDNGTSIHWHGIRQLGESNQDGANGVTECPIPPGSSKTYDFHVTQYGTSWYHSHYSNQYGNGVVGALIVRGPASANYDIDLGPYLISDYYYETADRLHLRAELVSNGPPPDSDNILFRGKNINPKRAGSGSYDRLVLTPGKKHLIRLINASVDNSFVISLVGHNFTVISTDMVPITPVVRSSLFMGVGQRYDVIVEANQPVGNYWLNATLEAQNNCGHSVNPFPAAIVQYEGASSTALPTNRGTPLTATCNGEKGFSPIVKRTVSSSLFQPSTLPVSLEFPTTDRGQVFEWRVKNTPISVEWEHPVLEYILQGNTSFPAKANLIEVPQANVWTFWVIQNGFGLPHPIHLHGHDFLVLGVGNGTFDAASMRGLLNFNNPVRRDVEQMPGNGWLVIAFKTDNPGCWLMHCHIGWHVAMGLGIQFLERRSDILALMKLDQMVPNCEAWRAYARTSPYLPKLDSGLKRGVEMREGMEPAVRRIG
modifications: Thielavia arenaria ALKO4197; (1)..(611) Deduced amino acid sequence of Thielavia arenaria LAKO4197 TaLcc3
For the molecule B2, the “Specific activity on DMP” value in data set [1] is 2.1 nkat/mg. Also, in data set [5], the pI is reported as 7.0-8.0. Also, in data set [2], the “Specific activity on guaiacol” value was found to be 0 nkat/mg. The “Specific activity on syringaldazin” value in data set [3] is 3.6 nkat/mg. Also, in data set [4], the “Specific activity on ABTS” value is 8.3 nkat/mg.
